For 1 molecule, Kd results are on record in PMC13676896 (2026).

This assay addresses T1, MYO10 motor domain 1-741 (Homo sapiens, UniProt Q9HD67).
T1 chain: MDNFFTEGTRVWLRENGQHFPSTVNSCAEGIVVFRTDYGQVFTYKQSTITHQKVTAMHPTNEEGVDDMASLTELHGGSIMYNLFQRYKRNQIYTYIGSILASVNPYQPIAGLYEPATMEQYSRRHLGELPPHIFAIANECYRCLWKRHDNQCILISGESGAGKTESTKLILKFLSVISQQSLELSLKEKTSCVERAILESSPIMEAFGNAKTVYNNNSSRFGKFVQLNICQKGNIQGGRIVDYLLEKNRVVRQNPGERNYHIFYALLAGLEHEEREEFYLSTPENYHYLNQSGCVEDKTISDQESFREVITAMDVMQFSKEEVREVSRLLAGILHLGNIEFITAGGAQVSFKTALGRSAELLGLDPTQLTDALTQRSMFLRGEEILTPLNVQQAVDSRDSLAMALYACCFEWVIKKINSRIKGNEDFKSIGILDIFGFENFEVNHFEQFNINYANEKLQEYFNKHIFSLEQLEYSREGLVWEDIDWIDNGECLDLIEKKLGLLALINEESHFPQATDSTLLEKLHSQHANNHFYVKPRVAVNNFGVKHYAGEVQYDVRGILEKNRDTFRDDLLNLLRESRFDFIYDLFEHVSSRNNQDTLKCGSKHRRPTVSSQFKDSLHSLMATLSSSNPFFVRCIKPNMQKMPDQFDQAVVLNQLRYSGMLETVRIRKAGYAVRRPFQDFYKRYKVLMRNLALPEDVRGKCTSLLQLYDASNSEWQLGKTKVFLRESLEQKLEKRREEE
The assay is described as follows: MST.

B1: CCT8 (protein)
chain: ALHVPKAPGFAQMLKEGAKHFSGLEEAVYRNIQACKELAQTTRTAYGPNGMNKMVINHLEKLFVTNDAATILRELEVQHPAAKMIVMASHMQEQEVGDGTNFVLVFAGALLELAEELLRIGLSVSEVIEGYEIACRKAHEILPNLVCCSAKNLRDIDEVSSLLRTSIMSKQYGNEVFLAKLIAQACVSIFPDSGHFNVDNIRVCKILGSGISSSSVLHGMVFKKETEGDVTSVKDAKIAVYSCPFDGMITETKGTVLIKTAEELMNFSKGEENLMDAQVKAIADTGANVVVTGGKVADMALHYANKYNIMLVRLNSKWDLRRLCKTVGATALPRLTPPVLEEMGHCDSVYLSEVGDTQVVVFKHEKEDGAISTIVLRGSTDNLMDDIERAVDDGVNTFKVLTRDKRLVPGGGATEIELAKQITSYGETCPGLEQYAIKKFAEAFEAIPRALAENSGVKANEVISKLYAVHQEGNKNVGLDIEAEVPAVKDMLEAGILDTYLGKYWAIKLATNAAVTVLRVDQIIMAKPAGGPKPPSGKKDWDDDQND
Usually Kd stands for a measure of binding affinity in units of concentration. For B1, the Kd is 1160 nM.
